Here are results for one molecule from patent publication KR20180112916A (dated 2018).

The target of this experiment is T1, B-세포 에피토프 펩타이드 Myc362 (human).
T1 construct: Synthetic peptide of over 90% purity, coated on the ELISA plate at 5 ug/ml; also called Myc362 펩타이드
Nature of the experiment: ELISA; Myc362 peptide coated at 5 ug/ml, antibody in serial dilution, HRP anti-IgG detection. Background: In an ELISA, binding on a coated surface is turned into a signal by an enzyme label.

T1 sequence (peptide, as listed by the source): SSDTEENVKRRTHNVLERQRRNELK

B1: 2E2F12 단클론 항체 (anti-Myc362 펩타이드-특이적인 단클론 항체) (antibody, V domains shown)
VH: EVQLQESGTELVKPGASVKLSCKASGYTFTSYWMHWVKLRPGQGFEWIGEINPSSGGTNYNENFKRKATLTVDRSSSTAYMQLSSLTSEDSAVYYCTIHRSYWGQGTTLTVSS
VL: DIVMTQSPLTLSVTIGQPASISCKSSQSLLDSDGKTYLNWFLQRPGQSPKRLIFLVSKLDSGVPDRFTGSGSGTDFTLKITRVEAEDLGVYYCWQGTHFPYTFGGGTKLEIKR
notes: also called 2E2F12 클론; anti-c-Myc 단클론 항체
Regarding B1, the Kd (as a rule, a measure of binding affinity in units of concentration) was ~37 nM.
